# Data as given in patent US20200199241A1 (Chugai, published 2020).
# Molecular target: T1, soluble human FcRn complexed with β2-microglobulin (human, UniProt P61769 21-119, limits assumed)
# T1 construct: also called hFcRn
# Assay: Biacore SPR, pH 7.0;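 note: test antibodies captured on a Protein L chip with human FcRn flowed over as analyte, KD obtained as the ratio of dissociation to association rate constants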
row,Binder,Kd
1,"IgG1-F890 (antibody, copies: 2 + 2) heavy: QVQLQESGPGLVKPSETLSLTCAVSGHSISHDHAWSWVRQPPGEGLEWIGFISYSGITNYNPSLQGRVTISRDNSKNTLYLQMNSLRAEDTAVYYCARSLARTTAMDYWGEGTLVTVSSASTKGPSVFPLAPSSKSTSGGTAALGCLVKDYFPEPVTVSWNSGALTSGVHTFPAVLQSSGLYSLSSVVTVPSSSLGTQTYICNVNHKPSNTKVDKKVEPKSCDKTHTCPPCPAPELLGGPSVFLFPPKPKDTLYISRTPEVTCVVVDVSHEDPEVKFNWYVDGVEVHNAKTKPREEQYNSTYRVVSVLTVLHQDWLNGKEYKCKVSNKALPAPIEKTISKAKGQPREPQVYTLPPSRDELTKNQVSLTCLVKGFYPSDIAVEWESNGQPENNYKTTPPVLDSDGSFFLYSKLTVDKSRWQQGNVFSCSVMHEALHYHVTQKSLSLSP light: not shown",110 nM
2,"IgG1-F756 (antibody, EU numbering; copies: 2 + 2) heavy: QVQLQESGPGLVKPSETLSLTCAVSGHSISHDHAWSWVRQPPGEGLEWIGFISYSGITNYNPSLQGRVTISRDNSKNTLYLQMNSLRAEDTAVYYCARSLARTTAMDYWGEGTLVTVSSASTKGPSVFPLAPSSKSTSGGTAALGCLVKDYFPEPVTVSWNSGALTSGVHTFPAVLQSSGLYSLSSVVTVPSSSLGTQTYICNVNHKPSNTKVDKKVEPKSCDKTHTCPPCPAPELLGGDSVFLFPPKPKDVLYISRTPEVTCVVVDVSHEDPEVKFNWYVDGVEVHNAKTKPREEQYNSTYRVVSVLTVLHQDWLNGKEYKCKVSNKALPAPIEKTISKAKGQPREPQVYTLPPSRDELTKNQVSLTCLVKGFYPSDIAVEWESNGQPENNYKTTPPVLDSDGSFFLYSKLTVDKSRWQQGNVFSCSVMHEALHYHYTQKSLSLSP light: not shown",370 nM
3,"IgG1-F747 (antibody, EU numbering; copies: 2 + 2) heavy: QVQLQESGPGLVKPSETLSLTCAVSGHSISHDHAWSWVRQPPGEGLEWIGFISYSGITNYNPSLQGRVTISRDNSKNTLYLQMNSLRAEDTAVYYCARSLARTTAMDYWGEGTLVTVSSASTKGPSVFPLAPSSKSTSGGTAALGCLVKDYFPEPVTVSWNSGALTSGVHTFPAVLQSSGLYSLSSVVTVPSSSLGTQTYICNVNHKPSNTKVDKKVEPKSCDKTHTCPPCPAPELLGGDSVFLFPPKPKDILYISRTPEVTCVVVDVSHEDPEVKFNWYVDGVEVHNAKTKPREEQYNSTYRVVSVLTVLHQDWLNGKEYKCKVSNKALPAPIEKTISKAKGQPREPQVYTLPPSRDELTKNQVSLTCLVKGFYPSDIAVEWESNGQPENNYKTTPPVLDSDGSFFLYSKLTVDKSRWQQGNVFSCSVMHEALHYHYTQKSLSLSP light: not shown",280 nM
4,"IgG1-F749 (antibody, EU numbering; copies: 2 + 2) heavy: QVQLQESGPGLVKPSETLSLTCAVSGHSISHDHAWSWVRQPPGEGLEWIGFISYSGITNYNPSLQGRVTISRDNSKNTLYLQMNSLRAEDTAVYYCARSLARTTAMDYWGEGTLVTVSSASTKGPSVFPLAPSSKSTSGGTAALGCLVKDYFPEPVTVSWNSGALTSGVHTFPAVLQSSGLYSLSSVVTVPSSSLGTQTYICNVNHKPSNTKVDKKVEPKSCDKTHTCPPCPAPELLGGDSVFLFPPKPKDLLYISRTPEVTCVVVDVSHEDPEVKFNWYVDGVEVHNAKTKPREEQYNSTYRVVSVLTVLHQDWLNGKEYKCKVSNKALPAPIEKTISKAKGQPREPQVYTLPPSRDELTKNQVSLTCLVKGFYPSDIAVEWESNGQPENNYKTTPPVLDSDGSFFLYSKLTVDKSRWQQGNVFSCSVMHEALHYHYTQKSLSLSP light: not shown",510 nM
5,"IgG1-F753 (antibody, EU numbering; copies: 2 + 2) heavy: QVQLQESGPGLVKPSETLSLTCAVSGHSISHDHAWSWVRQPPGEGLEWIGFISYSGITNYNPSLQGRVTISRDNSKNTLYLQMNSLRAEDTAVYYCARSLARTTAMDYWGEGTLVTVSSASTKGPSVFPLAPSSKSTSGGTAALGCLVKDYFPEPVTVSWNSGALTSGVHTFPAVLQSSGLYSLSSVVTVPSSSLGTQTYICNVNHKPSNTKVDKKVEPKSCDKTHTCPPCPAPELLGGDSVFLFPPKPKDQLYISRTPEVTCVVVDVSHEDPEVKFNWYVDGVEVHNAKTKPREEQYNSTYRVVSVLTVLHQDWLNGKEYKCKVSNKALPAPIEKTISKAKGQPREPQVYTLPPSRDELTKNQVSLTCLVKGFYPSDIAVEWESNGQPENNYKTTPPVLDSDGSFFLYSKLTVDKSRWQQGNVFSCSVMHEALHYHYTQKSLSLSP light: not shown",180 nM

# Continued, values first:
row,Kd,Binder
1,300 nM,"IgG1-F750 (antibody, EU numbering; copies: 2 + 2) heavy: QVQLQESGPGLVKPSETLSLTCAVSGHSISHDHAWSWVRQPPGEGLEWIGFISYSGITNYNPSLQGRVTISRDNSKNTLYLQMNSLRAEDTAVYYCARSLARTTAMDYWGEGTLVTVSSASTKGPSVFPLAPSSKSTSGGTAALGCLVKDYFPEPVTVSWNSGALTSGVHTFPAVLQSSGLYSLSSVVTVPSSSLGTQTYICNVNHKPSNTKVDKKVEPKSCDKTHTCPPCPAPELLGGDSVFLFPPKPKDMLYISRTPEVTCVVVDVSHEDPEVKFNWYVDGVEVHNAKTKPREEQYNSTYRVVSVLTVLHQDWLNGKEYKCKVSNKALPAPIEKTISKAKGQPREPQVYTLPPSRDELTKNQVSLTCLVKGFYPSDIAVEWESNGQPENNYKTTPPVLDSDGSFFLYSKLTVDKSRWQQGNVFSCSVMHEALHYHYTQKSLSLSP light: not shown"
2,600 nM,"IgG1-F746 (antibody, EU numbering; copies: 2 + 2) heavy: QVQLQESGPGLVKPSETLSLTCAVSGHSISHDHAWSWVRQPPGEGLEWIGFISYSGITNYNPSLQGRVTISRDNSKNTLYLQMNSLRAEDTAVYYCARSLARTTAMDYWGEGTLVTVSSASTKGPSVFPLAPSSKSTSGGTAALGCLVKDYFPEPVTVSWNSGALTSGVHTFPAVLQSSGLYSLSSVVTVPSSSLGTQTYICNVNHKPSNTKVDKKVEPKSCDKTHTCPPCPAPELLGGDSVFLFPPKPKDHLYISRTPEVTCVVVDVSHEDPEVKFNWYVDGVEVHNAKTKPREEQYNSTYRVVSVLTVLHQDWLNGKEYKCKVSNKALPAPIEKTISKAKGQPREPQVYTLPPSRDELTKNQVSLTCLVKGFYPSDIAVEWESNGQPENNYKTTPPVLDSDGSFFLYSKLTVDKSRWQQGNVFSCSVMHEALHYHYTQKSLSLSP light: not shown"
3,530 nM,"IgG1-F751 (antibody, EU numbering; copies: 2 + 2) heavy: QVQLQESGPGLVKPSETLSLTCAVSGHSISHDHAWSWVRQPPGEGLEWIGFISYSGITNYNPSLQGRVTISRDNSKNTLYLQMNSLRAEDTAVYYCARSLARTTAMDYWGEGTLVTVSSASTKGPSVFPLAPSSKSTSGGTAALGCLVKDYFPEPVTVSWNSGALTSGVHTFPAVLQSSGLYSLSSVVTVPSSSLGTQTYICNVNHKPSNTKVDKKVEPKSCDKTHTCPPCPAPELLGGDSVFLFPPKPKDNLYISRTPEVTCVVVDVSHEDPEVKFNWYVDGVEVHNAKTKPREEQYNSTYRVVSVLTVLHQDWLNGKEYKCKVSNKALPAPIEKTISKAKGQPREPQVYTLPPSRDELTKNQVSLTCLVKGFYPSDIAVEWESNGQPENNYKTTPPVLDSDGSFFLYSKLTVDKSRWQQGNVFSCSVMHEALHYHYTQKSLSLSP light: not shown"

# Molecular target: T2, human FcRn (soluble human FcRn complexed with β2-microglobulin) (human, UniProt P61769 21-119, limits assumed)
# T2 construct: also called hFcRn
# Assay: SPR, pH 7.0;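 note: antibodies captured on a Protein L sensor chip with human FcRn injected as analyte, KD calculated from fitted association and dissociation rate constants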
row,Binder,Kd
1,"IgG1-F745 (antibody, EU numbering; copies: 2 + 2) heavy: QVQLQESGPGLVKPSETLSLTCAVSGHSISHDHAWSWVRQPPGEGLEWIGFISYSGITNYNPSLQGRVTISRDNSKNTLYLQMNSLRAEDTAVYYCARSLARTTAMDYWGEGTLVTVSSASTKGPSVFPLAPSSKSTSGGTAALGCLVKDYFPEPVTVSWNSGALTSGVHTFPAVLQSSGLYSLSSVVTVPSSSLGTQTYICNVNHKPSNTKVDKKVEPKSCDKTHTCPPCPAPELLGGDSVFLFPPKPKDGLYISRTPEVTCVVVDVSHEDPEVKFNWYVDGVEVHNAKTKPREEQYNSTYRVVSVLTVLHQDWLNGKEYKCKVSNKALPAPIEKTISKAKGQPREPQVYTLPPSRDELTKNQVSLTCLVKGFYPSDIAVEWESNGQPENNYKTTPPVLDSDGSFFLYSKLTVDKSRWQQGNVFSCSVMHEALHYHYTQKSLSLSP light: not shown",660 nM
2,"IgG1-F741 (antibody, EU numbering; copies: 2 + 2) heavy: QVQLQESGPGLVKPSETLSLTCAVSGHSISHDHAWSWVRQPPGEGLEWIGFISYSGITNYNPSLQGRVTISRDNSKNTLYLQMNSLRAEDTAVYYCARSLARTTAMDYWGEGTLVTVSSASTKGPSVFPLAPSSKSTSGGTAALGCLVKDYFPEPVTVSWNSGALTSGVHTFPAVLQSSGLYSLSSVVTVPSSSLGTQTYICNVNHKPSNTKVDKKVEPKSCDKTHTCPPCPAPELLGGDSVFLFPPKPKDALYISRTPEVTCVVVDVSHEDPEVKFNWYVDGVEVHNAKTKPREEQYNSTYRVVSVLTVLHQDWLNGKEYKCKVSNKALPAPIEKTISKAKGQPREPQVYTLPPSRDELTKNQVSLTCLVKGFYPSDIAVEWESNGQPENNYKTTPPVLDSDGSFFLYSKLTVDKSRWQQGNVFSCSVMHEALHYHYTQKSLSLSP light: not shown",310 nM

# Second part, the binder after the results:
row,Kd,Binder
1,290 nM,"IgG1-F740 (antibody, EU numbering; copies: 2 + 2) heavy: QVQLQESGPGLVKPSETLSLTCAVSGHSISHDHAWSWVRQPPGEGLEWIGFISYSGITNYNPSLQGRVTISRDNSKNTLYLQMNSLRAEDTAVYYCARSLARTTAMDYWGEGTLVTVSSASTKGPSVFPLAPSSKSTSGGTAALGCLVKDYFPEPVTVSWNSGALTSGVHTFPAVLQSSGLYSLSSVVTVPSSSLGTQTYICNVNHKPSNTKVDKKVEPKSCDKTHTCPPCPAPELLGGPSVFLFPPKPKDTLYISRTPEVTCVVVDVSHEDPEVKFNWYVDGVEVHNAKTKPREEQYNSTYRVVSVLPVLHHDWLNGKEYKCKVSNKALPAPIEKTISKAKGQPREPQVYTLPPSRDELTKNQVSLTCLVKGFYPSDIAVEWESNGQPENNYKTTPPVLDSDGSFFLYSKLTVDKSRWQQGNVFSCSVMHEALHYHYTQKSLSLSP light: not shown"
2,990 nM,"IgG1-F744 (antibody, EU numbering; copies: 2 + 2) heavy: QVQLQESGPGLVKPSETLSLTCAVSGHSISHDHAWSWVRQPPGEGLEWIGFISYSGITNYNPSLQGRVTISRDNSKNTLYLQMNSLRAEDTAVYYCARSLARTTAMDYWGEGTLVTVSSASTKGPSVFPLAPSSKSTSGGTAALGCLVKDYFPEPVTVSWNSGALTSGVHTFPAVLQSSGLYSLSSVVTVPSSSLGTQTYICNVNHKPSNTKVDKKVEPKSCDKTHTCPPCPAPELLGGDSVFLFPPKPKDFLYISRTPEVTCVVVDVSHEDPEVKFNWYVDGVEVHNAKTKPREEQYNSTYRVVSVLTVLHQDWLNGKEYKCKVSNKALPAPIEKTISKAKGQPREPQVYTLPPSRDELTKNQVSLTCLVKGFYPSDIAVEWESNGQPENNYKTTPPVLDSDGSFFLYSKLTVDKSRWQQGNVFSCSVMHEALHYHYTQKSLSLSP light: not shown"
